Assay results as given in patent US20250019737A1.

How the values were obtained:
[1] = biological target: nDHFR-linker 1-His6-Ub (pND-Ub) (mouse) (UniProt P00375)
[2] = biological target: nDHFR-linker 1-His6-Ub (pND-Ub) (mouse) (UniProt P00375); experiment: cell-based or functional assay

Sequence of vWA Q149R (P00375 whole entry, stated change not applied): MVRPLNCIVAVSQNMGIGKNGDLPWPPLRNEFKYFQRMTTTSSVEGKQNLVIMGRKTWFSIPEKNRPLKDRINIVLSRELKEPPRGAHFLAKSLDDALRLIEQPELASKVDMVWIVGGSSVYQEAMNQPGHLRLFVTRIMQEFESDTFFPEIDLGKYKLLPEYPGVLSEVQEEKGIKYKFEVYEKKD
Sequence of vWA T173,175R (P00375 whole entry): as the sequence (P00375 whole entry, stated change not applied) above
Sequence of vWA (P00375 whole entry): as the sequence (P00375 whole entry, stated change not applied) above
Sequence of vWA Q149A (P00375 whole entry, stated change not applied): as above

Substance | Growth efficiency (max growth density divided by the time of half max growth); number matched to the legend entry by its order in the column and its grey tone [1] | bacterial growth on trimethoprim, split DHFR, incomplete ubiquitination cascade (ΔE1, ΔE2) [2] [µg/mL]
vWA Q149R (from UniProt P00375) | 516 | –
vWA (from UniProt P00375) | 1230 | –
vWA Q149A (from UniProt P00375) | 715 | –
cDHFR-Vps9 (pCD-Sub) (from UniProt P00375 109-187; P54787 1-451) | – | 0.1
vWA T173,175R (from UniProt P00375) | 62 | –
